According to publication PMC7603008 (Materials, 2020):

What was measured:
[1] = tested on: dental pulp cells under deep cavities; assay: TUNEL assay of dental pulp at deep cavity preparation areas; format: in vivo, beagle dog; conditions: 3 weeks, versus GI cement only control
Protocol: Apoptotic cells were detected using the TUNEL kit (Roche Biochemicals, Basel, Switzerland), according to the manufacturer’s instructions. Endogenous peroxidase activity within the tissue sections were blocked in 3% H2O2 prior to enzymatic labeling. To yield a colored reaction product, enzymatically labeled cells were then incubated with 3,3-diaminobenzidine tetrahydrochloride. Visualization was achieved by incubating the sections with diaminobenzidine tetrahydrochloride (DAB), and subsequent counter-staining with hematoxylin. Positive TUNEL signals were converted to red color using IHC Profiler of Image J software (National Institute of Health, Gaithersburg, MD, USA).

[2] = tested on: cavities in beagle dog premolars; assay: Characterisation of CPNE7-induced hard tissue (SEM, Masson's trichrome, alternative filling materials); format: in vivo
Protocol: Beagle dogs of 1–2 years of age were used for three independent experiments. After disinfecting the cervical regions of the maxillary and mandibular premolars with 0.5% chlorhexidine, dish-shaped class V cavities were prepared using a #4 high-speed round bur (head diameter, 1.4 mm). For shallow cavities, the drilling stopped when half to two-thirds of the bur head penetrated the tooth structure, depending on the tooth size. For deep cavities, the drilling stopped when the color of the remaining dentin looked reddish gray. The smear layer was removed with a gentle application of 17% EDTA. After sufficient irrigation, surgical sites were dried with a cotton pellet. For CPNE7 function analysis, the cavities were either untreated or treated with a topical application of rCPNE7 (recombinant CPNE7) protein (1 µg total rCPNE7 per tooth in a buffer containing 25 mM Tris-HCl, 100 mM glycine, and 10% glycerol). After a brief incubation for diffusion, the cavities were then filled with either glass ionomer (GI) cement (GC; Fuji II LC; GC America Inc., Alsip, IL, USA), composite resin (Filtek Supreme Ultra Flowable Restorative; 3 M, MN, USA) or intermediate restorative material (IRM; Dentsply Sirona, New York, PA, USA). For peptide function analysis, an HIV-1 Tat-derived cell-penetrating peptide was used as control. In addition to the abovementioned shallow and deep cavity models, complete pulp exposure was performed for peptide analysis. For complete pulp exposure, the drilling stopped when a pin-point exposure of the pulp was generated and bleeding was evident. Cotton pellets soaked in saline were used for bleeding control. Cavities with exposed pulps were divided into two groups for the experiment. Group 1 received only GI cement filling, group 2 received GI cement filling after MTA (ProRoot MTA; Dentsply Sirona, New York, PA, USA) sealing, and group 3 received GI cement filling after MTA mixed with CPNE7-derived peptide (Cpne7-DP) sealing. […]

[3] = tested on: deep cavities in beagle dog premolars; assay: Deep cavity tooth defect model in beagle dog premolars; format: in vivo
Excerpt: (§1) For in vivo canine studies, a total of 10 beagle dogs (2 y) were operated on, with all of them reaching end points. For each animal, 4 to 6 maxillary premolars and 6 mandibular premolars were used, depending on their periodontal conditions. Control and experimental groups were allocated to each and every animal so that possible biases resulting from individual nutritional, behavioral, and pulpal conditions could be eliminated. Compared to small animal studies, the sample size was necessarily limited for feasibility and ethical reasons. While the exact numbers for each experiment are included in the figure legends, at least 6 premolars and up to 12 premolars were assigned to every control and experimental group. Investigators performing beagle operation and sampling were not blinded, while investigators involved in histological analysis were blinded. All experiments using animals followed protocols approved by the Institutional Animal Care and Use Committee of Seoul National University (SNU-180416-2-1 and SNU-171020-5-2).
(§2) Beagle dogs of 1–2 years of age were used for three independent experiments. After disinfecting the cervical regions of the maxillary and mandibular premolars with 0.5% chlorhexidine, dish-shaped class V cavities were prepared using a #4 high-speed round bur (head diameter, 1.4 mm). […]

[4] = tested on: shallow cavities in beagle dog premolars; assay: Shallow cavity tooth defect model in beagle dog premolars; format: in vivo
Excerpt: as §1, §2

[5] = beagle dog premolars, topical application, then cavity filling, H&E histology after 3 weeks
[6] = six weeks instead of three, H&E, n = 6

B1: rCPNE7: recombinant CPNE7 protein, a dental epithelium-derived calcium-dependent phospholipid-binding protein (Origene) (protein, UniProt Q9UBL6 1-633, looked up)
Copine-7: MSAGSERGAAATPGGLPAPCASKVELRLSCRHLLDRDPLTKSDPSVALLQQAQGQWVQVGRTEVVRSSLHPVFSKVFTVDYYFEEVQRLRFEVYDTHGPSGFSCQEDDFLGGMECTLGQPAQKWLLQVVMRVSVDVLGPAGHCAKHFLCCTESSHLARTGPSFLLRYDDLCLPWATAGAVRWWTCRGGHTQGWQIVAQKKVTRPLLLKFGRNAGKSTITVIAEDISGNNGYVELSFRARKLDDKDLFSKSDPFLELYRVNDDQGLQLVYRTEVVKNNLNPVWEAFKVSLSSLCSCEETRPLKCLVWDYDSRGKHDFIGEFSTTFEEMQKAFEEGQAQWDCVNPKYKQKRRSYKNSGVVVLADLKFHRVYSFLDYIMGGCQIHFTVAIDFTASNGDPRNSCSLHYINPYQPNEYLKALVSVGEICQDYDSDKRFSALGFGARIPPKYEVSHDFAINFNPEDDECEGIQGVVEAYQNCLPRVQLYGPTNVAPIISKVARVAAAEESTGKASQYYILLILTDGVVTDMADTREAIVRASRLPMSIIIVGVGNADFTDMQVLDGDDGVLRSPRGEPALRDIVQFVPFRELKNASPAALAKCVLAEVPKQVVEYYSHRGLPPRSLGVPAGEASPGCTP
- Cell death under the newly generated dentin (TUNEL) [1]: significantly reduced cell death
- Collagen content of newly generated dentin area ([2]; Masson's trichrome staining): higher collagen content
- Hard tissue formation with alternative cavity filling material ([2]; composite resin or zinc oxide-eugenol (ZOE) filling, H&E after six weeks, n = 6): formation of tubular dentin
- Presence of dentinal tubules in the newly mineralized area ([2]; scanning electron microscopy, along the entire length of predentin): clear tubule structure
- New hard tissue formation beneath deep cavity [3, 5]: newly generated tertiary dentin was present beneath the remaining dentin
- Thickness of newly formed tubular dentin, deep cavity [3, 6]: increased significantly
- New hard tissue formation beneath shallow cavity [4, 5]: newly generated tertiary dentin retaining the physiologic tubule structure
- Thickness of newly formed tubular dentin, shallow cavity [4, 6]: increased significantly
